In assay [1] the target is T1, CaVrg4; C. albicans Vrg4; GDP-mannose transporter Vrg4 (Candida albicans, UniProt Q5A477).
T1 construct: first 33 residues excluded; expressed in S. cerevisiae BJ5460 from pDDGFP-Leu2D; His-tagged GFP fusion cut by TEV; DDM/DM purified, reconstituted into liposomes; ~37 kDa
T1 sequence (Q5A477 34-371): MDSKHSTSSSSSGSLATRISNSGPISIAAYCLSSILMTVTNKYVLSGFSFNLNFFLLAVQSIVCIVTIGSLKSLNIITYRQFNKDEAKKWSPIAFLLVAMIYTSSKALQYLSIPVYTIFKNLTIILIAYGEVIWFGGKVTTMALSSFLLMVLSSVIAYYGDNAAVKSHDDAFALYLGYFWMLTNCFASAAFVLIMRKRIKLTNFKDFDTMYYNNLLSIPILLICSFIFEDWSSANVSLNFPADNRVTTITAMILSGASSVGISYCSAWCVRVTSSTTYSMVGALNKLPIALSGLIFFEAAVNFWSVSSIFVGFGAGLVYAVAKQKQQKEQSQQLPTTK
Put plainly: cryo-EM structure, […] Å. Type of assay: binding. The following applies: complex with nanobody NB4, cytoplasmic-facing state; endogenous co-purified ligand; density suboptimal for precise ligand modelling.

The target in assay [2] is T2, Candida albicans Vrg4, Avi-tagged (C terminus), biotinylated (Candida albicans (UniProt Q5A477, …, UniProt Q5A477)).
T2 construct: also called biotinylated CaVrg4; purified CaVrg4; source: S. cerevisiae BJ5460, purified as the untagged version, biotinylated using BirA ligase; not shown: Avi tag, C-terminal, kept
Kind of assay: ELISA; dilution series of each nanobody captured by its Myc tag on MaxiSorp plates with protein A and anti-c-Myc antibody; 50 nM biotinylated CaVrg4 added for 40 minutes; streptavidin-peroxidase polymer, TMB, absorbance at 650 nm; KD from the 'one site - total binding' equation. The following applies: both partners purified.

With `Nc1nc2c(ncn2[C@@H]2O[C@H](COP(=O)(O)OP(=O)(O)O[C@H]3O[C@H](CO)[C@@H](O)[C@H](O)[C@@H]3O)[C@@H](O)[C@H]2O)c(=O)[nH]1` [GDP-mannose], the “cryo-EM structure, 3.4 Å” value in assay [1] was “in the maps obtained for the NB4-bound structure, we observed density consistent with the endogenous ligand”.

B1: Nanobody NB3 (VHH)
VHH: QVQLVESGGGLVQPGGSLRLSCAASGSISEINVMGWYRQAPGKQRELVARITTGGSTNYADSVKGRFTISRDNAKNTVYLQMNSLKPEDTAVYMCNAHRRVVMEWGPLGYDYWGQGTQVTVSS
notes: source: subcloned into the pSBinit vector and purified; not shown: Myc, C-terminal, kept; His, C-terminal, kept
What is called Kd is a measure of binding affinity in units of concentration. Low readings indicate a tighter complex, high ones a looser complex. In assay [2], B1 yielded a Kd of around 3 nM.

B2: Nanobody NB4 (VHH)
VHH: QVQLVESGGGLVQAGGSLRLSCAASGRTFRSYTLGWFRQAPGKEREFVAAIKWSTDTTYYADSVKGRFTISGDNAKNTVYLQMNSLKPEDTAVYFCAARSLSTVIAGPEIPWPYNSWGQGTQVTVSS
notes: as for B1
In the case of B2, in assay [2], the Kd is around 10 nM.
